Measured values published in US20140220031A1 (Biogen, published 2014).

T1: CD154 (human, UniProt P29965 113-261, limits assumed)
T1 construct: also called CD40 ligand; CD40L
T1 sequence (looked up): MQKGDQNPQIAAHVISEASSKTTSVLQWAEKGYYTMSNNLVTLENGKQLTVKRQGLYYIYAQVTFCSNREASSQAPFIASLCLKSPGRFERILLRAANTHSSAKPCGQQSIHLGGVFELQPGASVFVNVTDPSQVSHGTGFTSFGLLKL


Experiments:
[1] = target: T1, CD154; test: ELISA-based competitive binding assay; unlabeled Fab against biotin-labeled 5c8 Fab competitor
[2] = target: T1, CD154; test: assay not named in the sentence (mutants characterized by competitive ELISA)
[3] = target: T1, CD154; test: assay not given

Row | Binder | ELISA fold-improvement over wildtype [1] | fold higher affinity compared to the wildtype 5c8 Fab [2] | fold higher affinity compared to the wild type [3]
1 | 5c8 Fab Mutant #1 (heavy chain T30H) (Fab, V domains shown, Fab fragment) VH: QVQLVQSGAEVVKPGASVKLSCKASGYIFHSYYMYWVKQAPGQGLEWIGEINPSNGDTNFNEKFKSKATLTVDKSASTAYMELSSLRSEDTAVYYCTRSDGRNDMDSWGQGTLVTVSS VL: DIVLTQSPATLSVSPGERATISCRASQRVSSSTYSYMHWYQQKPGQPPKLLIKYASNLESGVPARFSGSGSGTDFTLTISSVEPEDFATYYCQHSWEIPPTFGGGTKLEIK | 2.3 fold over wildtype |  | 
2 | 5c8 Fab Mutant #12 (heavy chain N59D) (Fab, V domains shown, also called Asn59Asp) VH: QVQLVQSGAEVVKPGASVKLSCKASGYIFTSYYMYWVKQAPGQGLEWIGEINPSNGDTDFNEKFKSKATLTVDKSASTAYMELSSLRSEDTAVYYCTRSDGRNDMDSWGQGTLVTVSS VL: DIVLTQSPATLSVSPGERATISCRASQRVSSSTYSYMHWYQQKPGQPPKLLIKYASNLESGVPARFSGSGSGTDFTLTISSVEPEDFATYYCQHSWEIPPTFGGGTKLEIK | 0.13 fold over wildtype |  | 
3 | 5c8 Fab Mutant #2 (heavy chain Y33W) (Fab, V domains shown, Fab fragment) VH: QVQLVQSGAEVVKPGASVKLSCKASGYIFTSYWMYWVKQAPGQGLEWIGEINPSNGDTNFNEKFKSKATLTVDKSASTAYMELSSLRSEDTAVYYCTRSDGRNDMDSWGQGTLVTVSS VL: DIVLTQSPATLSVSPGERATISCRASQRVSSSTYSYMHWYQQKPGQPPKLLIKYASNLESGVPARFSGSGSGTDFTLTISSVEPEDFATYYCQHSWEIPPTFGGGTKLEIK | 7 fold over wildtype |  | 
4 | 5c8 Fab Mutant #7 (light chain Q27E) (Fab, V domains shown, Fab fragment) VH: QVQLVQSGAEVVKPGASVKLSCKASGYIFTSYYMYWVKQAPGQGLEWIGEINPSNGDTNFNEKFKSKATLTVDKSASTAYMELSSLRSEDTAVYYCTRSDGRNDMDSWGQGTLVTVSS VL: DIVLTQSPATLSVSPGERATISCRASERVSSSTYSYMHWYQQKPGQPPKLLIKYASNLESGVPARFSGSGSGTDFTLTISSVEPEDFATYYCQHSWEIPPTFGGGTKLEIK | 6.3 fold over wildtype |  | 
5 | 5c8 Fab Mutant #14 (light chain S26D/Q27E) (Fab, V domains shown, Fab fragment; also called double mutant) VH: QVQLVQSGAEVVKPGASVKLSCKASGYIFTSYYMYWVKQAPGQGLEWIGEINPSNGDTNFNEKFKSKATLTVDKSASTAYMELSSLRSEDTAVYYCTRSDGRNDMDSWGQGTLVTVSS VL: DIVLTQSPATLSVSPGERATISCRADERVSSSTYSYMHWYQQKPGQPPKLLIKYASNLESGVPARFSGSGSGTDFTLTISSVEPEDFATYYCQHSWEIPPTFGGGTKLEIK | 5.6 fold over wildtype | 9 fold over wildtype | 
6 | 5c8 Fab Mutant #13 (heavy chain N59L) (Fab, V domains shown, also called Asn59Leu) VH: QVQLVQSGAEVVKPGASVKLSCKASGYIFTSYYMYWVKQAPGQGLEWIGEINPSNGDTLFNEKFKSKATLTVDKSASTAYMELSSLRSEDTAVYYCTRSDGRNDMDSWGQGTLVTVSS VL: DIVLTQSPATLSVSPGERATISCRASQRVSSSTYSYMHWYQQKPGQPPKLLIKYASNLESGVPARFSGSGSGTDFTLTISSVEPEDFATYYCQHSWEIPPTFGGGTKLEIK | 0.01 fold over wildtype |  | 
7 | 5c8 Fab Mutant #6 (light chain S26D) (Fab, V domains shown, Fab fragment) VH: QVQLVQSGAEVVKPGASVKLSCKASGYIFTSYYMYWVKQAPGQGLEWIGEINPSNGDTNFNEKFKSKATLTVDKSASTAYMELSSLRSEDTAVYYCTRSDGRNDMDSWGQGTLVTVSS VL: DIVLTQSPATLSVSPGERATISCRADQRVSSSTYSYMHWYQQKPGQPPKLLIKYASNLESGVPARFSGSGSGTDFTLTISSVEPEDFATYYCQHSWEIPPTFGGGTKLEIK | 2.6 fold over wildtype |  | 
8 | 5c8 Fab Mutant #4 (heavy chain S54N) (Fab, V domains shown, Fab fragment) VH: QVQLVQSGAEVVKPGASVKLSCKASGYIFTSYYMYWVKQAPGQGLEWIGEINPNNGDTNFNEKFKSKATLTVDKSASTAYMELSSLRSEDTAVYYCTRSDGRNDMDSWGQGTLVTVSS VL: DIVLTQSPATLSVSPGERATISCRASQRVSSSTYSYMHWYQQKPGQPPKLLIKYASNLESGVPARFSGSGSGTDFTLTISSVEPEDFATYYCQHSWEIPPTFGGGTKLEIK | 2 fold over wildtype |  | 
9 | 5c8 Fab Mutant #8 (light chain S31V) (Fab, V domains shown) VH: QVQLVQSGAEVVKPGASVKLSCKASGYIFTSYYMYWVKQAPGQGLEWIGEINPSNGDTNFNEKFKSKATLTVDKSASTAYMELSSLRSEDTAVYYCTRSDGRNDMDSWGQGTLVTVSS VL: DIVLTQSPATLSVSPGERATISCRASQRVSVSTYSYMHWYQQKPGQPPKLLIKYASNLESGVPARFSGSGSGTDFTLTISSVEPEDFATYYCQHSWEIPPTFGGGTKLEIK | 0.02 fold over wildtype |  | 
10 | 5c8 Fab Mutant #15 (light chain S26D/Q27E/T33W) (Fab, V domains shown, Fab fragment) VH: QVQLVQSGAEVVKPGASVKLSCKASGYIFTSYYMYWVKQAPGQGLEWIGEINPSNGDTNFNEKFKSKATLTVDKSASTAYMELSSLRSEDTAVYYCTRSDGRNDMDSWGQGTLVTVSS VL: DIVLTQSPATLSVSPGERATISCRADERVSSSWYSYMHWYQQKPGQPPKLLIKYASNLESGVPARFSGSGSGTDFTLTISSVEPEDFATYYCQHSWEIPPTFGGGTKLEIK | 3.8 fold over wildtype |  | 
11 | 5c8 Fab Mutant #5 (light chain T33W) (Fab, V domains shown, Fab fragment) VH: QVQLVQSGAEVVKPGASVKLSCKASGYIFTSYYMYWVKQAPGQGLEWIGEINPSNGDTNFNEKFKSKATLTVDKSASTAYMELSSLRSEDTAVYYCTRSDGRNDMDSWGQGTLVTVSS VL: DIVLTQSPATLSVSPGERATISCRASQRVSSSWYSYMHWYQQKPGQPPKLLIKYASNLESGVPARFSGSGSGTDFTLTISSVEPEDFATYYCQHSWEIPPTFGGGTKLEIK | 5 fold over wildtype |  | 
12 | 5c8 Fab Mutant #9 (light chain T33D) (Fab, V domains shown) VH: QVQLVQSGAEVVKPGASVKLSCKASGYIFTSYYMYWVKQAPGQGLEWIGEINPSNGDTNFNEKFKSKATLTVDKSASTAYMELSSLRSEDTAVYYCTRSDGRNDMDSWGQGTLVTVSS VL: DIVLTQSPATLSVSPGERATISCRASQRVSSSDYSYMHWYQQKPGQPPKLLIKYASNLESGVPARFSGSGSGTDFTLTISSVEPEDFATYYCQHSWEIPPTFGGGTKLEIK | 0.22 fold over wildtype |  | 
13 | 5c8 Fab Mutant #10 (light chain Y54E) (Fab, V domains shown) VH: QVQLVQSGAEVVKPGASVKLSCKASGYIFTSYYMYWVKQAPGQGLEWIGEINPSNGDTNFNEKFKSKATLTVDKSASTAYMELSSLRSEDTAVYYCTRSDGRNDMDSWGQGTLVTVSS VL: DIVLTQSPATLSVSPGERATISCRASQRVSSSTYSYMHWYQQKPGQPPKLLIKEASNLESGVPARFSGSGSGTDFTLTISSVEPEDFATYYCQHSWEIPPTFGGGTKLEIK | 0.06 fold over wildtype |  | 
14 | 5c8 Fab Mutant #11 (heavy chain Y33F) (Fab, V domains shown) VH: QVQLVQSGAEVVKPGASVKLSCKASGYIFTSYFMYWVKQAPGQGLEWIGEINPSNGDTNFNEKFKSKATLTVDKSASTAYMELSSLRSEDTAVYYCTRSDGRNDMDSWGQGTLVTVSS VL: DIVLTQSPATLSVSPGERATISCRASQRVSSSTYSYMHWYQQKPGQPPKLLIKYASNLESGVPARFSGSGSGTDFTLTISSVEPEDFATYYCQHSWEIPPTFGGGTKLEIK | 0.05 fold over wildtype |  | 

The next lines start with the values.

Row | ELISA fold-improvement over wildtype [1] | fold higher affinity compared to the wildtype 5c8 Fab [2] | fold higher affinity compared to the wild type [3] | Binder
15 | 5.2 fold over wildtype |  |  | 5c8 Fab Mutant #23 (heavy chain Y33W; light chain S26D/Q27E) (Fab, V domains shown, Fab fragment) VH: QVQLVQSGAEVVKPGASVKLSCKASGYIFTSYWMYWVKQAPGQGLEWIGEINPSNGDTNFNEKFKSKATLTVDKSASTAYMELSSLRSEDTAVYYCTRSDGRNDMDSWGQGTLVTVSS VL: DIVLTQSPATLSVSPGERATISCRADERVSSSTYSYMHWYQQKPGQPPKLLIKYASNLESGVPARFSGSGSGTDFTLTISSVEPEDFATYYCQHSWEIPPTFGGGTKLEIK
16 | 5.8 fold over wildtype |  |  | 5c8 Fab Mutant #16 (heavy chain T30H; light chain S26D/Q27E) (Fab, V domains shown, Fab fragment) VH: QVQLVQSGAEVVKPGASVKLSCKASGYIFHSYYMYWVKQAPGQGLEWIGEINPSNGDTNFNEKFKSKATLTVDKSASTAYMELSSLRSEDTAVYYCTRSDGRNDMDSWGQGTLVTVSS VL: DIVLTQSPATLSVSPGERATISCRADERVSSSTYSYMHWYQQKPGQPPKLLIKYASNLESGVPARFSGSGSGTDFTLTISSVEPEDFATYYCQHSWEIPPTFGGGTKLEIK
17 | 5.6 fold over wildtype |  | 25 fold over wild type | 5c8 Fab Mutant #25 (heavy chain T30H/Y33W; light chain S26D/Q27E/T33W) (Fab, V domains shown, Fab fragment; also called combination 5 point mutation (assigned)) VH: QVQLVQSGAEVVKPGASVKLSCKASGYIFHSYWMYWVKQAPGQGLEWIGEINPSNGDTNFNEKFKSKATLTVDKSASTAYMELSSLRSEDTAVYYCTRSDGRNDMDSWGQGTLVTVSS VL: DIVLTQSPATLSVSPGERATISCRADERVSSSWYSYMHWYQQKPGQPPKLLIKYASNLESGVPARFSGSGSGTDFTLTISSVEPEDFATYYCQHSWEIPPTFGGGTKLEIK
18 | 5.9 fold over wildtype |  |  | 5c8 Fab Mutant #17 (heavy chain Y33W; light chain S26D/Q27E/T33W) (Fab, V domains shown, Fab fragment) VH: QVQLVQSGAEVVKPGASVKLSCKASGYIFTSYWMYWVKQAPGQGLEWIGEINPSNGDTNFNEKFKSKATLTVDKSASTAYMELSSLRSEDTAVYYCTRSDGRNDMDSWGQGTLVTVSS VL: DIVLTQSPATLSVSPGERATISCRADERVSSSWYSYMHWYQQKPGQPPKLLIKYASNLESGVPARFSGSGSGTDFTLTISSVEPEDFATYYCQHSWEIPPTFGGGTKLEIK
19 | 8 fold over wildtype |  |  | 5c8 Fab Mutant #24 (heavy chain T30H/Y33W; light chain S26D/Q27E) (Fab, V domains shown, Fab fragment) VH: QVQLVQSGAEVVKPGASVKLSCKASGYIFHSYWMYWVKQAPGQGLEWIGEINPSNGDTNFNEKFKSKATLTVDKSASTAYMELSSLRSEDTAVYYCTRSDGRNDMDSWGQGTLVTVSS VL: DIVLTQSPATLSVSPGERATISCRADERVSSSTYSYMHWYQQKPGQPPKLLIKYASNLESGVPARFSGSGSGTDFTLTISSVEPEDFATYYCQHSWEIPPTFGGGTKLEIK
20 | 5.4 fold over wildtype |  |  | 5c8 Fab Mutant #18 (heavy chain T30H; light chain S26D/Q27E/T33W) (Fab, V domains shown, Fab fragment) VH: QVQLVQSGAEVVKPGASVKLSCKASGYIFHSYYMYWVKQAPGQGLEWIGEINPSNGDTNFNEKFKSKATLTVDKSASTAYMELSSLRSEDTAVYYCTRSDGRNDMDSWGQGTLVTVSS VL: DIVLTQSPATLSVSPGERATISCRADERVSSSWYSYMHWYQQKPGQPPKLLIKYASNLESGVPARFSGSGSGTDFTLTISSVEPEDFATYYCQHSWEIPPTFGGGTKLEIK
